Drawing on US20230295310A1 (ABCELLERA BIOLOGICS, published 2023), this text covers Kd for 15 molecules.

For the assay, the target named is T1, human CD3e/d (human, UniProt P07766 23-126; P04234 22-105).
T1 construct: Bought soluble protein; also called hCD3e/d; human CD3/ed (Sino CT038-H2508H)
The assay can be described thus: SPR (Carterra LSA), mAb on chip. As for the experimental part:
High-throughput surface plasmon resonance (SPR) coupled kinetic experiments were performed on a Carterra LSA® instrument equipped with an HC-30M chip type (Carterra, USA). The instrument uses two microfluidic modules, a single-flow cell (SFC) and a 96 printhead, to deliver samples to the chip surface via back-and-forth cycling of a fixed sample volume. An up to 384-ligand array is generated by docking the MFC onto each of the four nested print block locations in a serial manner.
The purified mAbs were immobilized on a Carterra LSA® HC-30M chip by direct coupling. The chip surface was first activated by flowing a freshly prepared 1:1:1 activation mix of 100 mM MES pH 5.5, 100 mM S-NHS, 400 mM EDC for 7 min. mAbs diluted to 10 μg/mL in 10 mM NaOAc pH 4.25+0.01% TWEEN®20 were then injected and printed onto the chip surface simultaneously using the MFC printhead for 10 min. Finally, the chip surface was quenched by flowing 1 M ethanolamine for 7 min (to block the excess reactive esters), followed by 2 wash steps of 15 s each in 25 mM MES pH 5.5. In addition to expressed and purified mAbs, relevant benchmarks and negative control mAbs were also printed on the chip surface.
The data were analyzed using the Carterra Kinetics analysis software. Briefly, the data were referenced with the interstitial reference spots and double-referenced to a buffer cycle, and then fit globally to a 1:1 Langmuir binding model to determine their apparent association (ka) and dissociation (kd) kinetic rate constants and binding affinity constants (KD).

T1 sequence (P07766 23-126, chain 1 of 2): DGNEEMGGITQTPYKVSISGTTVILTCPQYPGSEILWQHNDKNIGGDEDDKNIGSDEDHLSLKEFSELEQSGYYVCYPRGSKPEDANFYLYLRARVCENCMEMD
T1 sequence (P04234 22-105, chain 2 of 2): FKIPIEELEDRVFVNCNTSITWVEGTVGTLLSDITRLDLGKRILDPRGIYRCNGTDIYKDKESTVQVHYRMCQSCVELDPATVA

B1: mAb 172 (antibody, V domains shown)
VH: EVQLVESGGGLVQPGRSLRLSCTTSGFTFDDYTMHWVRQVPGKGLEWVSDISWNSGSVGYADSVKGRFTISRDNAKNSLYLQMNSLRAEDTALYYCVKDSSGYGHYFHYYMDVWGKGTTVTVSS
VL: DIQMTQSPSSLSASVGDRVTITCRASQSISNYLNWYQVKPGKAPKVLIYAASSLQSGVPSRFSGSGSGTDFTLTISSLQPEDFVSYYCHQSYNAPITFGQGTRLESK
notes: VH and VL only
Take B1: the Kd (commonly a measure of binding affinity in units of concentration) was 4.83 nM.

B2: mAb 179 (antibody, V domains shown)
VH: EVQLVESGGGLVQPGRSLRLSCAASGFTFDDYTMHWVRQTPGKGLEWVSDISWNSGSIGYADSVKGRFTISRDNAKNTLYLQMNSLRAEDTALYYCVKDSSGYGHYLYYYMDVWGKGTTVTVSS
VL: DIQMTQSPSSLSASVGDRVTITCRASQSIRNYLNWYQQSPGRAPKLLIFSASSLQSGVPSRFSGSGSGTDFTLTISSLQPEDFVTYYCQQRYSTPITFGQGTRLEIK
notes: VH and VL only
The molecule B2 came in with a Kd of 7.72 nM.

B3: mAb 173 (antibody, V domains shown)
VH: EVQLVESGGGLVQPGRSLRLSCAASGFTFDDYTMHWVRQVPGKGLEWVSDISWNSGSVGYADSVKGRFTISRDNAKNSLYLQMNSLRAEDTALYYCVKDSSGYGHYFHYYMDVWGKGTTVTVSS
VL: DIQMTQSPSSLSASVGDRVTITCRASQSISNYLNWYQVKPGKAPKVLIYAASSLQSGVPSRFSGSGSGTDFTLTISSLQPEDFVSYYCHQSYNTPITFGQGTRLEIK
notes: VH and VL only
On to B3, for which binding was characterised by a dissociation constant (Kd) of 7.11 nM.

B4: mAb 167 (antibody, V domains shown)
VH: EVHLVESGGGLVQPGRSLRLSCAASGFTFDDYAMHWVRQAPGKGLEWVSGISWNSGTIGYADSVKGRFTISRDNAKNSLYLEMNSLRAEDTALYYCAKDSSGYGHYYHYYIDVWGTGTTVTVSS
VL: EIVMTQSPATLSVSPGGRATLSCRASQSVGSNLAWYQQKPGQAPRLLIYDASTRATGIPARFRGSGSGTEFTLTISGLQSEDFAVYYCQLYYNWPHFGQGTRLEIK
notes: VH and VL only
B4 displayed a Kd of 6.26 nM.

B5: mAb 178 (antibody, V domains shown)
VH: EVQLVESGGGLVQPGRSLRLSCAASGFTFDDYTMHWVRQAPGKGLEWVSDISWNSGTIGYADSVKGRFTISRDNAKNSLYLQMNSLRAEDTALYYCVKDSSGYGHYYKYYMDVWGKGTTVTVSS
VL: DIQMTQSPSSLSASVGDRVTITCRASQSISNYLNWYQQKAGKVPKVLIYGSSSLQSGVPSRFSGSGSGTDFTLTISSLQPEDFASYYCQQTYSSPLTFGGGTKVDFK
notes: VH and VL only
B5 came in with a Kd of 0.992 nM.

B6: mAb 176 (antibody, V domains shown)
VH: EVELVESGGGLVQPGRSLRLSCAASGFKFDDYTMHWVRLPPGKGLEWVSGISWNSGTIDYGDSVKGRFTISRDNAKNSLYLQMNSLRVEDTALYYCAKDTSGYGHYFYYYMDVWGKGTTVTVSS
VL: DIQMTQSPSSLSASIGDRVSITCRTSQIINNYLNWYQQKPGKAPKVLIYSASSLQSGVPSRFSGSGSGTDFTLTINSLQPEDFATYYCQQSYNFPITFGQGTRLELK
notes: VH and VL only
In turn, B6 gave a Kd of 3.49 nM.

B7: mAb 177 (antibody, V domains shown)
VH: EVQLVESGGGLVQPGMSLRLSCAASGFTFDDYTMHWVRQSPGKGLEWVAGISWNSGTIGYGDSMKGRFTISRDNAKNSLDLQMNSLRVEDTALYYCAKDTSGYGHYYYYFMDVWGKGTTVTVSS
VL: DIQMTQSPSSLSASIGDRVSITCRTSQIINNYLNWYQQKPGKAPKLLIYSASSLQSGVPSRFSGSGSGTDFTLTLSSLQPEDFATYFCQQSYNFPITFGQGTRLELK
notes: VH and VL only; The printed VL holds a letter 'U'
As for B7, the Kd was 41.1 nM.

B8: mAb 228 (antibody, V domains shown)
VH: EVQLLESGGGLVQPGGSLRLSCAASGFTFSNYAMNWVRQAPGKGLEWVSTISGSGGGKYYADSVKGRFTISRDNSKNTLYLHMNSLRAEDTAVYYCAKDPVQDRYYFYYYYMDVWGKGTTVTVSS
VL: EIVLTQSPDFQSVTPKEKVTITCRASQSIGSSLHWYQQKPDQSPKLLIKYASQSISGVPSRFSGSGSGTDFTLTINSLEAEDAAAYYCHQSSSLPHTFGQGTKLEIK
notes: VH and VL only
The molecule B8 gave a Kd of 25 nM.

B9: mAb 240 (antibody, V domains shown)
VH: QGKLVESGGGVVQPGRSLRLSCVASGFTFSGYGMHWVRQAPNKGLEWVAIIYYDGKNKYYADSVKGRFTISRDNSKNTLYLQLNSLRAEDTAVYYCVRGPGYNWFDPWGQGTLVTVSS
VL: EIVLTQSPDFQSVTPKEKVTITCRASQNIGSSLHWYQQKPDQSPKLLIKHASQSFSGVPSRFSGSGSGTDFTLTINSLEAEDAATYYCHQSSSLPYTFGQGTKLEIK
notes: VH and VL only
Regarding B9, the Kd was found to be 18 nM.

B10: mAb 258 (antibody, V domains shown)
VH: EVQLLESGGGLVQPGGSLRLSCAASGFTFSNYAMNWVRQAPGKGLEWVSVISNSGGTRLYVDSVKGRFTISRDNSKNTLYLQMSSLRAADTAVYYCAKDAAAALYYYYFYYMDVWGKGTTVTVSS
VL: EIVLTQSPDFQSVTPKEKVTITCRASQSIGSSLHWYQQKPDQSPKLLIKYASQSFSGVPSRFSGSGSGTDFTLTINSLEAEDAATYYCHQSSSLPYTFGQGTKLEIK
notes: VH and VL only
In turn, B10 returned a Kd of 24 nM.

B11: mAb 230 (antibody, V domains shown)
VH: EVQLLESGGGLVQPGGSLRLSCAASGFTFSSYAMSWVRQAPGKGLEWVSSISGSGGSRYYADSVKGRFTISRDNSKNTLYLQMNSLRAEDTAVYYCAKDPVQDRYYFYYYYMDVWGKGTTVTVSS
VL: EIVLTQSPDFQSVTPKEKVTITCRASQSIGSSLHWYQQKPDQSPKLLIKYASQSISGVPSRFSGSGSGTDFTLTINSLEAEDAAAYYCHQSSSLPHTFGQGTKLEIK
notes: VH and VL only
Turning to B11, the Kd was determined as 18 nM.

B12: mAb 284 (antibody, V domains shown)
VH: EVQLLESGGGLVQPGGSLRLSCAASGFTFSSYAMSWVRQAPGKGLEWVSAISGSSGRTYYTDSVKGRFTISRDNSKNTLSLQMNSLRAEDTAVYYCAKKYSYYYYYMDVWGKGTTVTVSS
VL: SYELTQPLSVSVALGQTAKITCGGNNIGSKNVHWYQQKPGQAPVLVIYRDSNRPSGIPERFSGSNSGNTATLTISRAQAGDEADYYCQVWDSSTAVFGGGTQLTAL
notes: VH and VL only
Molecule B12 came in with a Kd of 450 nM.

B13: mAb 301 (antibody, V domains shown)
VH: EVQLLESGGGLVQPGGSRRLSCAASGFTFSSYAMSWVRQAPGKGLEWVSVISGRGDNTNYADSVKGRFTISRENSKNMLYLQMNSLRAEDTAVYYCAKKYSYYYYYMDVWGKGTTVTVSS
VL: SYELTQPLSVSVALGQTARITCGGNNIGSKDVHWYQQKPGQAPVLVIYRDSNRPSGIPERFSGSNSGNTATLTISRAQAGDEADYYCQVWDSRTAVFGGGTQLTAL
notes: VH and VL only
Molecule B13 had a Kd of 110 nM.

B14: mAb 285 (antibody, V domains shown)
VH: EVQLLESGGGLGQPGGSLRLSCAASGFTFSNYAMSWVRQAPGKGLEWVSVISGSGGDKNYADSVKGRFTISRDNSKNTLYLQMNSLRAEDTAVYYCAKKYSYYYYYMDVWGKGTTVTVSS
VL: SYELTQPLSVSVALGQTARITCGGNNIGSKDVHWYQQKPGQAPVLVIYRDSNRPSGIPERFSGSNSGNTATLTISSAQAGDEADYYCQVWDSRTAVFGGGTQLTAL
notes: VH and VL only
Take B14: the Kd amounted to 150 nM.

B15: mAb 304 (antibody, V domains shown)
VH: EVQLLESGGGLVQPGGSRRLSCAASGFTFSSYAMSWVRQAPGKGLEWVSVISGRGDNTNYADSVKGRFTISRENSKNILYLQMNSLRAEDTAVYYCAKKYSYYYYYMDVWGKGTTVTVSS
VL: SYELTQPLSVSVALGQTARITCGGNNIGSKDVHWYQQKPGQAPVLVIYRDSNRPSGIPERFSGSNSGNTATLTISRAQAGDEADYYCQVWDSRTAVFGGGTQLTAL
notes: VH and VL only
Molecule B15 yielded a Kd of 120 nM.
